The values below are quoted from earlier work in paper PMC9966187.

A word on the Kd: it is a measure of binding affinity in units of concentration.

Turning to E-selectin (from UniProt P16581), the Kd in the data set with C-(IEELQAR) peptide was 35 µM; with C-(IELFQAR) peptide, 16 µM.
